From patent US20230212319A1, “NOVEL ANTIGEN BINDING DOMAINS AND SYNTHETIC ANTIGEN RECEPTORS INCORPORATING THE SAME” (University of Southern California, priority 2020, published 2023)

What was measured:
Assay type in all cases: cell-based
Nalm6 cells = experiment: JNG assay, co-culture with Nalm6 cells; settings: co-culture with Nalm6
Experimental: Cellular supernatant is collected and assayed for the induction of cytokines (e.g., IL2).
JNG (Jurkat cells expressing EGFP under an NFAT promoter) were infected with lentiviral vectors encoding different single chain and multi-chain SARs by spinfection in the presence of 8 µg/ml of Polybrene® (Sigma, Catalog no. H9268). The Jurkat-NFAT-GFP cells are engineered in such a way that the IL-2 promoter, which carries NFAT binding sites, is cloned upstream of the GFP gene. These cells have been used to study signaling via TCR and CAR. The different SARs were stably expressed in Jurkat NFAT-GFP cells by lentiviral mediated gene transfer, followed by selection with puromycin or blasticidin. No drug selection was used in case the construct lacked an antibiotic resistance gene. The SAR-expressing Jurkat-NFAT-GFP cells were cocultured with the target cells at E:T ratio of approximately 1:2 for approximately 4 hours to 18 hours. When the interaction between SIRs and their target antigen results in activation of the NFAT pathway, GFP expression is induced. […] GFP expression was monitored by FACS analysis. The Jurkat-NFAT-GFP (parental) cells were used as control. The structure of different constructs can be determined based on their names. For example, the construct CD8SP-CD19-hu-mROO5-1-vL-[hTCRa-C SDVP]-F-F2A-Spe-IgHSP-Apa-CD20-vHH-2HCD25-G4S-CDl9-hu-mROO5-1-vH-Mlu-[hTCRb-KACIAH]-F-P2A-PAC has the following modules from 5′ to 3′ direction: a CD8 signal peptide (CD8SP), the CD19 targeting hu-mROO5-1 vL fragment (CD19-hu-mROO5-1), Xho1 cloning site, human TCRa constant chain containing CSDVP mutations (hTCRa-CSDVP), Furine cleavage site (F), F2A ribosomal skip sequence (F2A), SpeI site, human IgH signal peptide (IgHSP), Apa I restriction enzyme site, camelid CD20-2HCD25-VHH module targeting CD20, BamHI restriction enzyme site, Glycinex4-serine linker (G4S), BstI restriction enzyme site, CD19-hu-mROO5-1-vH fragment targeting CD19, Mlu I restriction enzyme site, human TCRb constant chain containing KACIAH mutations ([hTCRb-KACIAH]), Furine cleavage site (F), P2A ribosomal skip sequence and Puromycin resistance gene (PAC). The sequence of the other constructs in the table can be similarly determined from their names and by referring to the different Tables of this disclosure that provide the names and SEQ ID NO of the different modules. Alternatively, the composition and modular architecture of the different SAR constructs can be determined from their sequences by bioinformatics tools, including using nucleic acid and amino acids homology searches. A SAR is considered positive in the assay in case the SAR expressing Jurkat-NFAT-GFP cells show greater % GFP positive cells when cultured with the target cell line as compared to parental Jurkat-NFAT-GFP cells. The signs +/-, +, 2+ etc. after the name of the cell lines indicate the relative degree of positivity on the Jurkat-NFAT-GFP assay as measured by the % GFP positive cells after culture of the SAR expressing Jurkat-NFAT-GFP cells with that cell line above the % GFP cells observed in parental Jurkat NFAT-GFP cells serving as controls. In general, the number +/-, +, 2+, 3+, 4+, 5+ refer to approximately 5%, 10%, 20%, 30%, 40% and 50% GFP positive cells. The % of GFP induction in the above assay is dependent not only the relative strength of the SAR but also, among other factors, on the relative level of expression of the SAR in the JNG cells and the relative level of expression of the target antigen in the target cell line. To control for the difference in gene transduction efficiency of the different SAR constructs, the experiment was conducted with JNG cells transduced with SAR constructs co-expressing a drug resistance gene (e.g., puromycin or PAC) followed by drug selection to generate a stable population of SAR-expressing cells. […]

L363 cells = experiment: JNG assay, co-culture with L363 cells; settings: co-culture with L363
In short: (§1)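 Jurkat-NFAT-GFP (JNG) cells stably expressing SAR constructs via lentiviral transduction and puromycin/blasticidin selection were cocultured with target cells at E:T ~1:2 for ~4–18 h. NFAT-driven GFP was measured by FACS versus parental JNG cells; scores +/- to 5+ denote ~5–50% GFP-positive cells.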

RAJI cells = experiment: JNG assay, co-culture with RAJI cells; settings: JNG cells expressing construct, co-culture with Raji
In short: as §1

B1: 21986 (protein)
chain: MALPVTALLLPLALLLHAARPQLQLQESGPGLVKPSETLSLTCTVSGDSISSGDYYWGWIRQPPGKGLEWIGHIYYSGVTYYNPSLKSRVTISVDTSRNQFSLKLSSVTAADTAVYYCTREDSSNWRSRGQGTLVTVSSLEDLKNVFPPEVAVFEPSEAEISHTQKATLVCLATGFYPDHVELSWWVNGKEVHSGVCTDPQPLKEQPALNDSRYCLSSRLRVSATFWQNPRNHFRCQVQFYGLSENDEWTQDRAKPVTQIVSAEAWGRADCGFTSESYQQGVLSATILYEILLGKATLYAVLVSALVLMAMVKRKDSRGRAKRSGSGATNFSLLKQAGDVEENPGPTSMDWIWRILFLVGAATGAHSFEEVQLLESGGGLVQPGGSLRLSCAASGFTFSSYAMSWVRQAPGKGLEWVSSISGSGDYIYYADSVKGRFTISRDISKNTLYLQMNSLRAEDTAVYYCAKEGTGANSSLADYRGQGTLVTVSSTRIQNPDPAVYQLRDSKSSDKSVCLFTDFDSQTNVSQSKDSDVYITDKCVLDMRSMDFKSNSAVAWSNKSDFACANAFNNSIIPEDTFFPSPESSCDVKLVEKSFETDTNLNFQNLSVIGFRILLLKVAGFNLLMTLRLWSSRAKRSGSGVKQTLNFDLLKLAGDVESNPGPSRGHMTEYKPTVRLATRDDVPRAVRTLAAAFADYPATRHTVDPDRHIERVTELQELFLTRVGLDIGKVWVADDGAAVAVWTTPESVEAGAVFAEIGPRMAELSGSRLAAQQQMEGLLAPHRPKEPAWFLATVGVSPDHQGKGLGSAVVLPGVEAAERAGVPAFLETSAPRNLPFYERLGFTVTADVEVPEGPRTWCMTRKPGA
B1 was tested, and the “NFAT-GFP ASSAY: Nalm6” value (Nalm6 cells) was “+/- (refer to approximately 5%, 10%, 20%, 30%, 40% and 50% GFP positive cells)” and the “NFAT-GFP ASSAY: L363” value (L363 cells) was “+ (refer to approximately 5%, 10%, 20%, 30%, 40% and 50% GFP positive cells)”.

B2: 22210 (protein)
chain: MALPVTALLLPLALLLHAARPACPQLGPYELWELSHGTGGGGSGGGGSGGGGSEFDIQMTQSPSSLSASVGDRVTITCKASDHINNWLAWYQQKPGQAPKLLIYGATTLETGVPSRFSGSGSGTDYTLTISSLQPEDFATYYCQQSWNTPWTFGQGTKLEIKRLEDLKNVFPPEVAVFEPSKAEIAHTQKATLVCLATGFYPDHVELSWWVNGKEVHSGVCTDPQPLKEQPALNDSRYCLSSRLRVSATFWQNPRNHFRCQVQFYGLSENDEWTQDRAKPVTQIVSAEAWGRADCGITSASYHQGVLSATILYEILLGKATLYAVLVSALVLMAMVKRKDSRGRAKRSGSGATNFSLLKQAGDVEENPGPTSATMDWIWRILFLVGAATGAHSGPQVQLQESGGGLAQAGGSLRLSCAASGRTFSMGWFRQAPGKEREFVAAITYSGGSPYYASSVRGRFTISRDNAKNTVYLQMNSLKPEDTAVYYCAANPTYGSDWNAENWGQGTQVTVSSGSGGGGSGGGGSGGGGSFEQVQLQQPGAELVKPGASVKMSCKASGYAFSSYWINWMKQKPGQGLEWIGQIYPGDGDTNYNGKFKGRATLTADTSSSTAYMQLSSLTSEDSAVYFCARSITTVVGCAMDYWGQGTSVTVSSTRIQNPDPAVYQLRDSKSSDKSVCLFTDFDSQTNVSQSKDSDVYITDKCVLDMRSMDFKSNSAVAWSNKSDFACANAFNNSIIPEDTFFPSSDVPCDVKLVEKSFETDTNLNFQNLSVIGFRILLLKVAGFNLLMTLRLWSSRAKRSGSGVKQTLNFDLLKLAGDVESNPGPSRGHMTEYKPTVRLATRDDVPRAVRTLAAAFADYPATRHTVDPDRHIERVTELQELFLTRVGLDIGKVWVADDGAAVAVWTTPESVEAGAVFAEIGPRMAELSGSRLAAQQQMEGLLAPHRPKEPAWFLATVGVSPDHQGKGLGSAVVLPGVEAAERAGVPAFLETSAPRNLPFYERLGFTVTADVEVPEGPRTWCMTRKPGA
With B2 the “NFAT-GFP ASSAY: Nalm6” value (Nalm6 cells) was “+ (refer to approximately 5%, 10%, 20%, 30%, 40% and 50% GFP positive cells)” and the “NFAT-GFP ASSAY: Raji” value (RAJI cells) was 2+ (refer to approximately 5%, 10%, 20%, 30%, 40% and 50% GFP positive cells).

B3: 22091 (protein)
chain: MALPVTALLLPLALLLHAARPQLQLQESGPGLVKPSETLSLTCTVSGDSISSGDYYWGWIRQPPGKGLEWIGHIYYSGVTYYNPSLKSRVTISVDTSRNQFSLKLSSVTAADTAVYYCTREDSSNWRSRGQGTLVTVSSLEDLKNVFPPEVAVFEPSKAEIAHTQKATLVCLATGFYPDHVELSWWVNGKEVHSGVCTDPQPLKEQPALNDSRYCLSSRLRVSATFWQNPRNHFRCQVQFYGLSENDEWTQDRAKPVTQIVSAEAWGRADCGITSASYHQGVLSATILYEILLGKATLYAVLVSALVLMAMVKRKDSRGRAKRSGSGATNFSLLKQAGDVEENPGPTSMDWIWRILFLVGAATGAHSFEVQLLESGGGLIQPGGSLRLSCAASGFTFSSHAMTWVRQAPGKGLEWVSAISGSGDYTHYADSVKGRFTISRDNSKNTVYLQMNSLRAEDSAVYYCAKDEDGGSLLGHRGQGTLVTVSSTRIQNPDPAVYQLRDSKSSDKSVCLFTDFDSQTNVSQSKDSDVYITDKCVLDMRSMDFKSNSAVAWSNKSDFACANAFNNSIIPEDTFFPSPESSCDVKLVEKSFETDTNLNFQNLSVIGFRILLLKVAGFNLLMTLRLWSSRAKRSGSGVKQTLNFDLLKLAGDVESNPGPSRGHMTEYKPTVRLATRDDVPRAVRTLAAAFADYPATRHTVDPDRHIERVTELQELFLTRVGLDIGKVWVADDGAAVAVWTTPESVEAGAVFAEIGPRMAELSGSRLAAQQQMEGLLAPHRPKEPAWFLATVGVSPDHQGKGLGSAVVLPGVEAAERAGVPAFLETSAPRNLPFYERLGFTVTADVEVPEGPRTWCMTRKPGA
B3 was tested, and the “NFAT-GFP ASSAY: Nalm6” value (Nalm6 cells) was “+/- (refer to approximately 5%, 10%, 20%, 30%, 40% and 50% GFP positive cells)” and the “NFAT-GFP ASSAY: Raji” value (RAJI cells) was “+ (refer to approximately 5%, 10%, 20%, 30%, 40% and 50% GFP positive cells)”.

B4: 22209 (protein)
chain: MALPVTALLLPLALLLHAARPACPYINIYNAEPANPSEKNSPTQYAYGTGGGGSGGGGSGGGGSEFDIQMTQSPSSLSASVGDRVTITCKASDHINNWLAWYQQKPGQAPKLLIYGATTLETGVPSRFSGSGSGTDYTLTISSLQPEDFATYYCQQSWNTPWTFGQGTKLEIKRLEDLKNVFPPEVAVFEPSKAEIAHTQKATLVCLATGFYPDHVELSWWVNGKEVHSGVCTDPQPLKEQPALNDSRYCLSSRLRVSATFWQNPRNHFRCQVQFYGLSENDEWTQDRAKPVTQIVSAEAWGRADCGITSASYHQGVLSATILYEILLGKATLYAVLVSALVLMAMVKRKDSRGRAKRSGSGATNFSLLKQAGDVEENPGPTSATMDWIWRILFLVGAATGAHSGPQVQLQESGGGLAQAGGSLRLSCAASGRTFSMGWFRQAPGKEREFVAAITYSGGSPYYASSVRGRFTISRDNAKNTVYLQMNSLKPEDTAVYYCAANPTYGSDWNAENWGQGTQVTVSSGSGGGGSGGGGSGGGGSFEQVQLQQPGAELVKPGASVKMSCKASGYAFSSYWINWMKQKPGQGLEWIGQIYPGDGDTNYNGKFKGRATLTADTSSSTAYMQLSSLTSEDSAVYFCARSITTVVGCAMDYWGQGTSVTVSSTRIQNPDPAVYQLRDSKSSDKSVCLFTDFDSQTNVSQSKDSDVYITDKCVLDMRSMDFKSNSAVAWSNKSDFACANAFNNSIIPEDTFFPSSDVPCDVKLVEKSFETDTNLNFQNLSVIGFRILLLKVAGFNLLMTLRLWSSRAKRSGSGVKQTLNFDLLKLAGDVESNPGPSRGHMTEYKPTVRLATRDDVPRAVRTLAAAFADYPATRHTVDPDRHIERVTELQELFLTRVGLDIGKVWVADDGAAVAVWTTPESVEAGAVFAEIGPRMAELSGSRLAAQQQMEGLLAPHRPKEPAWFLATVGVSPDHQGKGLGSAVVLPGVEAAERAGVPAFLETSAPRNLPFYERLGFTVTADVEVPEGPRTWCMTRKPGA
With B4 the “NFAT-GFP ASSAY: Nalm6” value (Nalm6 cells) was 2+ (refer to approximately 5%, 10%, 20%, 30%, 40% and 50% GFP positive cells) and the “NFAT-GFP ASSAY: Raji” value (RAJI cells) was 2+ (refer to approximately 5%, 10%, 20%, 30%, 40% and 50% GFP positive cells).
